Measured values reported in US20220073643A1 (NANJING GENSCRIPT BIOTECH, published 2022).
Numbering of substitutions follows the chain as printed.

B1: 185F2G12 (antibody, V domains shown)
VH: QAYLQQSGAELVRSGASVKMSCKASGYTFTSYNMHWVRQTPGQGLEWIGYIYPGNGGTNYSQKFKGKASLTADTSSTTAYMQISSLTSEDSAVYFCATGRGFAYWGQGTLVTVSA
VL: DIVMTQSPSSLTVTAGEKVTLSCKSSQSLFNTGNQKNYLTWYQQKPGQPPKLLIFRASTRESGVPDRFTGSGFGTDFTLTISSVQAEDLAVYYCQNDFSYPLTFGAGTKLELK
notes: mouse hybridoma mAb
B2: 232F1E4 (antibody, V domains shown)
VH: QVQLKESGPGLVAPSQSLSITCTVSGFALTTYGVSWVRQPPGKGLEWLGVIWGDGSTHYHSALISRLSIRKDNSKSQVFLKLNSLQTDDTATYYCAKPGRGNAMDYWGQGTSVTVSS
VL: DIVMSQSPSSLTVTAGEKVTMSCKSSQSLLNSGNQKNYLTWYQQKPGQSPKLLIYWASTRESGVPDRFTGSGSGTDFTLTISSMQAEDLAVYYCQNDYIYPLTFGAGTMLELK
notes: mouse hybridoma mAb
B3: 267B2C5 (antibody, V domains shown)
VH: B2 VH with S19A, A28S, L82V, A96G
VL: B2 VL with S5T, M84V, A106G, M109T
notes: mouse hybridoma mAb
B4: 196A12B10 (antibody, V domains shown)
VH: QIQWVQSGPELKKPRETVKISCKASGYTFTDYSMHWVKQAPGKGLKWMGWINSETGEATYADDFRGRFALSLETSATTAFLQINSLKNEDTGTYFCARFYYGNSFASWGQGTTLTVSS
VL: DIVMTQFPSSLTVTAGEKVTMTCKSSQSLLNGGNQKNYLTWYQQKPGLPPKLLIYWASTRESGVPDRFTGSGSGTEFTLTISSVQAEDLAVYYCQNNYYFPLTFGAGTKLELK
notes: mouse hybridoma mAb; also called 196Al2B10
B5: 203A6D5 (antibody, V domains shown)
VH: QVQLKQSGPGLVQPSQSLSITCTVSGFSLTRYGVHWVRQSPGKGLEWLGVIWSGGNTDYNAAFISRLNIRKDNSKSQVFFKMNSLKPNDTAIYYCARAAYFGNSFDYWGQGTTLTVSS
VL: B2 VL with S5T, T12P, S49P, E61D, M84V, D97N, M109K
notes: mouse hybridoma mAb
B6: 186G12H3 (antibody, V domains shown)
VH: EVMLVESGGGLVKPGGSLKLSCAASRFTLSSYAMSWVRQTPEKRLEWVATISSGGSYTYYFDSVKGRFTISRDTAKNTLNLQMSSLRSEDTAMYYCARLYYGNALDYWGQGTSVTVSS
VL: B2 VL with S5T, M21V, S49P, M84V, D97N, M109T
notes: mouse hybridoma mAb
B7: 231C11E9 (antibody, V domains shown)
VH: EVMLVESGGGLVKPGGSLKLSCAASGFTFNNYVMCWVRQTPEKRLEWVATISSGNFYTYYPDSVKGRFTISRDNAKNTLYLQMSSLRSEDTAIYYCASLGRGNALDNWGQGTSVTVSS
VL: DIVMTQSPASLTVTAKEKVTMSCRSSQSLLNSGNQKNYLTWYQQKPGQPPKLLIYWASTRESGVPDRFTGSGSGTDFTLTISSVQAEDLAVYYCQNDYSYPFTFGSGTKLEIK
notes: mouse hybridoma mAb
B8: 194A2F7 (antibody, V domains shown)
VH: QIQLVQSGPELKKPGETVKISCKASGYTFTDYLIHWVKQAPGKGLKWMGWINTETGEPTYADDFKGRFALSLETSASTACLQINNLKNEDTATYFCARIYYGNSFDYWGQGTTLTVSS
VL: DIVMTQSPSSLPVTAGEKVTMTCKSSQNLLNSGNQKSYLTWYQQKPGQPPKLLIYWASTRETGVPDRFTGSGSGTDFTLTISSVQAEDLAVYYCQNAYRFPFTFGAGTRLELK
notes: mouse hybridoma mAb
B9: 234B9D4 (antibody, V domains shown)
VH: EIQLQQSGPDLMKPGSSVKISCTASGYSFTSYYIHWVKQSHGKTLEWIGYIDPFNGGTRYNQKFEGKAALTVDKSSTTAYMHLTSLTSDDSAVYYCASLRFFTYWGQGTLVTVSA
VL: B1 VL with L21M, S22T, F30L, T32S, K36E, F55S, E61Q, F73S, F98Y
notes: mouse hybridoma mAb
B10: 248E6A7 (antibody, V domains shown)
VH: QAYLQQSGAELVRSGASVKMSCRASGYTFTSHNMHWVKQTPGQGLEWIGYIYPGNGNTYYNQKFKVKATLTADTSSNTAYMQINSLTSEDSAVYFCVRDYYGNSFVYWGQGTLVTVSA
VL: DVVMTQSPSSLTEKTGEKVTMTCKSSQSLLNSGNQKNYLAWYQQKPGQPPKLLIYWASTRESGVPDRFIGSGSGTDFTLTISSLQTEDLAVYYCQNNYMYPFTFGAGTKLELK
notes: mouse hybridoma mAb
B11: 248G8E8 (antibody, V domains shown)
VH: B2 VH with A28S, H58N, A62T, S68R, R70S, N73K, P98A, M104L
VL: B2 VL with M4L, S5T, S49P, M84V, I99S, Y100F, M109K
notes: mouse hybridoma mAb
B12: 237D2A4 (antibody, V domains shown)
VH: B2 VH with A28S, T31S, H58N, A62T, S68R, R70S, N73K, P98A, M104L
VL: B2 VL with S5T, S49P, M84V, I99S, Y100F, M109K
notes: mouse hybridoma mAb
B13: 266B11F7 (antibody, V domains shown)
VH: B2 VH with L4M, A28S, S35T, H58N, I64T, S68R, R70S, N73K, N83S, M104L
VL: B2 VL with S5T, S22R, S49P, I54V, I81V, M84V, Y100F, M109K
notes: mouse hybridoma mAb
B14: 262C7C10 (antibody, V domains shown)
VH: QAYLQQSGAELVRSGASVKMSCKASGYTFTNYNIHWVKQTPGQGLEWIGYIYPGNGGNYYNQKFKGKATLTADTSSITAYMQISSLTSEDSAVYFCARDYYGNSFAYWGQGTLVTVSA
VL: B2 VL with S5T, S22N, S49P, M84V, V91I, I99Y, M109K
notes: mouse hybridoma mAb
B15: 240A8E7 (antibody, V domains shown)
VH: B14 VH with G57D, I77S
VL: B2 VL with I2V, S5T, S22N, S49P, L52M, M84V, V91I, I99Y, L102F, M109K
notes: mouse hybridoma mAb
B16: 240F8G2 (antibody, V domains shown)
VH: B14 VH with I77S
VL: B2 VL with M4V, S5T, S22N, S49P, M84V, V91I, I99Y, M109K
notes: mouse hybridoma mAb
B17: 268D7H9 (antibody, V domains shown)
VH: B14 VH with I77S
VL: B2 VL with V3A, S5T, S22N, S49P, M84V, V91I, I99Y, M109T
notes: mouse hybridoma mAb
B18: 253E4F7 (antibody, V domains shown)
VH: EIQLQQSGPELMKPGASVKMSCKASGYSFTSYYIHWVKQSHGKSLEWIGYIDPFNGGTRYNQKFEGKATLTVDKSSTTAYMHLSSLTSEDSTVYYCASLRFLAYWGQGTLVTVSA
VL: B1 VL with L21M, S22T, F30L, T32S, L52V, F55S, E61Q, F73S, F98Y
notes: mouse hybridoma mAb
B19: 263E9F3 (antibody, V domains shown)
VH: B18 VH with L4V, M20I, K23R, A24S, H41R, N55S, T92A, L102F
VL: DIVMTQSPSSLTVTAGEKVTMTCKSSQSLLNSGNQENYLTWYQQKPGQPPELLISRASTRQSGVPDRFTGSGSGTDFTLTISSVQTEDLAVYYCQNDYSYPLTFGAGTKLELK
notes: mouse hybridoma mAb
B20: 246B5F2 (IgM) (antibody, V domains shown)
VH: EVMLVESGGGLMKPGGSLKLSCAASEFTFSNYAMSWVRQTPEKRLEWVATISSGRSSTYYPDSVKGRFTISRDNAKNTLYLQMSSLRSEDTAMYYCAGLGRGNAMEYWGQGTSVTVSS
VL: B7 VL with A9S, K16G, M21L, R24K, T78I, S82N, D97A
notes: mouse hybridoma mAb, IgM
B21: 254A8D5 (antibody, V domains shown)
VH: EVMLVESGGGLVKPGGSLKLSCAASGFTFSSYTVSWVRQTPEKRLEWVATSIVGSTYTYFPDSVKGRFTISRDFAKNTLFLQMSSLRSEDTAMYYCSRLGRGNAMDYWGQGTSVSVSS
VL: B7 VL with A9S, K16G, M21L, S22N, E87D, D97G
notes: mouse hybridoma mAb
B22: 242F5H2 (antibody, V domains shown)
VH: B21 VH
VL: B7 VL with A9S, K16G, M21L, S22N, E87D, D97G
notes: mouse hybridoma mAb
B23: 252E7C9 (antibody, V domains shown)
VH: B10 VH with A2T, A24T, T28S, N57G, T58S, V66G, T69I, N77S, N84S, V97T
VL: B10 VL with T20S, T22S, A40T, I69T, V91I, Y98F, M99R
notes: mouse hybridoma mAb
B24: 252C10F6 (antibody, V domains shown)
VH: QVHLKQSGRGLVQPSQSLSITCTVSGFSLPNYGVHWVRQPPGKGLEWLGVIWSGGNTDYNTVFKARLSITKDNSKSQVFFKMNSLQADDTAIYYCARNLYGNYDYAMDYWGQGTSVTVSS
VL: DIVMTQSPATLSVTPGDRVSLSCRASQSISDYLHWYQQKSHESPRLLIKYASQSISGIPSRFSGSGSGSEFTLSINSVEPEDVGVYYCQNGHSFPFTFGSGTKLEIK
notes: mouse hybridoma mAb
B25: 260F8A6 (antibody, V domains shown)
VH: B10 VH with V66G
VL: B10 VL with T20S, T22S, A40T
notes: mouse hybridoma mAb
B26: 292D9C7 (antibody, V domains shown)
VH: QVQLKESGPGLVAPSQSLSITCTVSGFSLTDYGVSWIRQPPGKGLEWLGVIWGGGNAYYNSALKSRLSISKDNSKSQVFLKMNSLRTDDTAMYYCAKNGLLRYLDYWGQGSTLTVSS
VL: B2 VL with I2T, S5T, S49P, T75R, M84V, A86V, V91I, I99Y, M109K, L110V
notes: mouse hybridoma mAb
B27: 273F3D4 (antibody, V domains shown)
VH: B2 VH
VL: B2 VL
notes: mouse hybridoma mAb
B28: 259B4D4 (antibody, V domains shown)
VH: EIQLQQSGPELMKPGASVRISCKASGYSFTSYYMHWMKQSHVKSLEWIGYIDPFNGNTRYNQKFKDKATLTVDKSSTTAYMHLSSLTSEDSAVYFCASLRFFAYWGQGTLVTVSA
VL: B2 VL with S5T, K24N, S49P, T59S, S83T, M84V, I99S, Y100F, M109R
notes: mouse hybridoma mAb

biological target: T1, human Claudin18.2 (human); assay: cell ELISA, Claudin18.2-expressing HEK293T cells
T1 construct: also called CLDN18.2
Method in brief: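 Claudin18.2-expressing HEK293T stable cells (1.5×10⁶ cells/ml in 5% skim milk/PBS blocking buffer) were incubated 1 h at room temperature in plates pre-blocked overnight at 4° C. EC₅₀ was derived by four-parameter curve fit.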

| Binder | EC50 [nM] |
| --- | --- |
| B1 | 1.73 |
| B2 | 0.966 |
| B3 | 0.895 |
| B4 | 1.78 |
| B5 | 1.16 |
| B6 | 2.21 |
| B7 | 1.91 |
| B8 | 2.57 |
| B9 | 4.78 |
| B10 | 0.396 |
| B11 | 0.56 |
| B12 | 1.9 |
| B13 | ~0.397 |
| B14 | 1.77 |
| B15 | 0.646 |
| B16 | 0.88 |
| B17 | ~0.411 |
| B18 | 0.611 |
| B19 | 1.08 |
| B20 | 6.59 |
| B21 | 0.982 |
| B22 | ~0.403 |
| B23 | ~0.37 |
| B24 | ~12.5 |
| B25 | 1.8 |
| B26 | 0.875 |
| B27 | 1.13 |
| B28 | ~0.378 |
